This is an account of results in patent US20240309103A1 (Regeneron, published 2024).

The target of experiment [1] is T1, mouse NPR1 extracellular domain expressed with a C-terminal myc-myc-hexahistidine (mNPR1-MMH) (mouse, UniProt P18293 29-469). Put plainly: SPR, mAb captured, 37 C. Put shortly:
(§1)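 Binding of NPR1 reagents to anti-NPR1 antibodies immobilized via anti-human Fc capture was measured by SPR in pH 7.4 HEPES/NaCl/EDTA/Tween buffer. Affinities are equilibrium KD values.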
(In general: SPR reads the build-up and loss of mass on a sensor chip optically.)
Target sequence in this assay (P18293 other isoform, or with tags, fused parts or gaps): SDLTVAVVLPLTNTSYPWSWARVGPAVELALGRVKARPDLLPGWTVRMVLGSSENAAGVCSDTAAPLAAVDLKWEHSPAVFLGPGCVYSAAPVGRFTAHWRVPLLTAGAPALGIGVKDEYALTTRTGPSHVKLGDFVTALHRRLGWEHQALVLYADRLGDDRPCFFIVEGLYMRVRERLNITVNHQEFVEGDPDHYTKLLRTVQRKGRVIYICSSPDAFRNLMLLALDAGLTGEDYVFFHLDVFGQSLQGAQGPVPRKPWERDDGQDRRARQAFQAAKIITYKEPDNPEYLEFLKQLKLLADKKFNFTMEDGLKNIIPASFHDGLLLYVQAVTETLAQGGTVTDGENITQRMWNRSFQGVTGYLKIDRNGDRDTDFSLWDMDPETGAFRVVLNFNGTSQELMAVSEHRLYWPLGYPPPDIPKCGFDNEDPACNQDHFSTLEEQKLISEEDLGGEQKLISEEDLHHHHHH

Experiment [2] concerns the target T2, human NPR1 extracellular domain expressed with a C-terminal mouse IgG2a (hNPR1-mFc) (human).
T2 construct: also called hNPR1-Fc; human NPR1 dimer
T2 chain: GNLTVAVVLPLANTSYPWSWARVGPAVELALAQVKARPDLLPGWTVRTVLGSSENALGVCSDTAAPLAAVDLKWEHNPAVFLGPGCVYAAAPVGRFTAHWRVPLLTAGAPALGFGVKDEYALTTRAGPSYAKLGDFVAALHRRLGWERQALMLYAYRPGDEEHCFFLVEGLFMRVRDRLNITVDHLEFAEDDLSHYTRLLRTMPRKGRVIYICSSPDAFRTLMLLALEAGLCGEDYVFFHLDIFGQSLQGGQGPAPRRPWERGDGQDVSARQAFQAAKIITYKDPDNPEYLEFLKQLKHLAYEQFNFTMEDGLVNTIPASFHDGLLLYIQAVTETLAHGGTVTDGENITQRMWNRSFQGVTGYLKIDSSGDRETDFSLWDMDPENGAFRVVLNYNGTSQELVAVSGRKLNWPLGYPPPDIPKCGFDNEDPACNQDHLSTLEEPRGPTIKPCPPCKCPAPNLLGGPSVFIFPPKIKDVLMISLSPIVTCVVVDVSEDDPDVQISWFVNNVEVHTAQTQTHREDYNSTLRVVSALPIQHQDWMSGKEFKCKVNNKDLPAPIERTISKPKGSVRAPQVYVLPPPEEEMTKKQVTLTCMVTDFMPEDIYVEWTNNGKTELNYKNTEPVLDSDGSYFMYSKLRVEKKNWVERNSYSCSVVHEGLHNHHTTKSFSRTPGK
As to the kind of experiment: SPR, mAb captured, 37 C. Put shortly: as §1

The target in experiment [3] is T3, human NPR1 extracellular domain expressed with a C-terminal myc-myc-hexahistidine (hNPR1-MMH) (human, UniProt P16066 33-473).
T3 construct: also called hNPR.mmh; monomeric human NPR1
Put plainly: SPR, mAb captured, 37 C. The essentials:
as §1

Experiment [4] addresses T4, monkey NPR1 extracellular domain expressed with a C-terminal myc-myc-hexahistidine (mfNPR1-MMH) (monkey, UniProt P16066 33-473 (human entry)).
T4 construct: also called monomeric monkey NPR1
T4 chain: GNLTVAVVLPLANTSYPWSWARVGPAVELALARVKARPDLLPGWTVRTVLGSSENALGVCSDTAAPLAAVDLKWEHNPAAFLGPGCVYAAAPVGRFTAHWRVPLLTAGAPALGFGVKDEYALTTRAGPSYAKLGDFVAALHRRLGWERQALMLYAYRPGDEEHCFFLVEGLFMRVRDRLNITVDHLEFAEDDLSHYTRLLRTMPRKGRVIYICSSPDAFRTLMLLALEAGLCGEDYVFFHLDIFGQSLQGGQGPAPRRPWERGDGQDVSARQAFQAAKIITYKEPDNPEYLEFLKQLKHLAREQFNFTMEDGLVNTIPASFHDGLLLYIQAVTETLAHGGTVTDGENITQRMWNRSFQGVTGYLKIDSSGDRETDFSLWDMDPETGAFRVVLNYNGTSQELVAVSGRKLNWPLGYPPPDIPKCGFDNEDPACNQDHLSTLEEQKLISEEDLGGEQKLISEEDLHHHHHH
Put plainly: SPR, mAb captured, 37 C. Put shortly:
as §1

Experiment [5] addresses T1, mouse NPR1 extracellular domain …. Put plainly: SPR, mAb captured, 25 C. Put shortly:
as §1

Experiment [6] addresses T2, human NPR1 extracellular domain …. Put plainly: SPR, mAb captured, 25 C. Put shortly: as §1
In experiment [7] the target is T3, human NPR1 extracellular domain …. As to the kind of experiment: SPR, mAb captured, 25 C. The essentials: as §1
Target sequence in this assay (P16066 other isoform, or with tags, fused parts or gaps): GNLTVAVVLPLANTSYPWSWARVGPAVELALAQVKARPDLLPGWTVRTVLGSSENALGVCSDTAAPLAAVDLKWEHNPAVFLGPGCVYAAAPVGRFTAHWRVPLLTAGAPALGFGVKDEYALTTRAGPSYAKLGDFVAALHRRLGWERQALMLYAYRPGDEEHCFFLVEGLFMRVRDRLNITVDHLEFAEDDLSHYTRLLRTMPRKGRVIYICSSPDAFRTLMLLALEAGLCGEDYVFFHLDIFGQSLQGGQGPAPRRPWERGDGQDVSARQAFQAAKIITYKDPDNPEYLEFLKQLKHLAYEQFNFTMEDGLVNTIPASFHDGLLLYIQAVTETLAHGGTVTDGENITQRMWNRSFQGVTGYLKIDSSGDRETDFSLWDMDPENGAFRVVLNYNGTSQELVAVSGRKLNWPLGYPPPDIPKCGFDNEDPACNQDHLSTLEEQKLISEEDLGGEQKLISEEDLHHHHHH
The target of experiment [8] is T4, monkey NPR1 extracellular domain …. As to the kind of experiment: SPR, mAb captured, 25 C. Put shortly: as §1
The target of experiment [9] is T5, mouse NPR1 extracellular domain expressed with a C-terminal mouse IgG2a (mNPR1-mFc) (mouse).
T5 chain: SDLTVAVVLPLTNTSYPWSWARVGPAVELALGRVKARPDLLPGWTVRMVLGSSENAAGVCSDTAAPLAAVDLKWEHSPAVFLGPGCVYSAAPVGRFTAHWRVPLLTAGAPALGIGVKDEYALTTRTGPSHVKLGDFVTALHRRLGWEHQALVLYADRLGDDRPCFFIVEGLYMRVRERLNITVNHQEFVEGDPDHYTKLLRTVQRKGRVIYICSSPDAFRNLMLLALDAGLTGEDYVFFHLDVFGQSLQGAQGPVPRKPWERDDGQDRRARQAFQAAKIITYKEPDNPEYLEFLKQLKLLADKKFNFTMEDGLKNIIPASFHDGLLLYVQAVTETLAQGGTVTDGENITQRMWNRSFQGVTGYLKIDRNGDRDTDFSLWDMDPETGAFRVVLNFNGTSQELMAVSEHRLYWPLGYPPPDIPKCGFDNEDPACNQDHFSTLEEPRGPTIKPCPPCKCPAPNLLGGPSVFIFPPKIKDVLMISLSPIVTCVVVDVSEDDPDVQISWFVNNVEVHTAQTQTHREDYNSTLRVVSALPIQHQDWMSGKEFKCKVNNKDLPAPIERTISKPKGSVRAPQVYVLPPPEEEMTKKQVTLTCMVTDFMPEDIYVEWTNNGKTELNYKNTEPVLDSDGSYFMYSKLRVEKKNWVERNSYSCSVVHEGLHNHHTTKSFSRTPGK
Put plainly: SPR, Tables 21 to 26. On the procedure: (§2) Equilibrium dissociation constant (KD) for different NPR1 reagents binding to purified anti-NPR1 monoclonal antibodies (mAbs) were determined using a real-time surface plasmon resonance based Biacore 4000 biosensor. All binding studies were performed in 10 mM HEPES, 150 mM NaCl, 3 mM EDTA, and 0.05% v/v Surfactant Tween-20, pH 7.4 (HBS-ET) running buffer at 25° C. and 37° C. The Biacore CM5 sensor chip surface was first derivatized by amine coupling with either mouse anti-human Fc specific mAb (GE Healthcare, #BR100839) or goat anti-human Fcy specific polyclonal antibody (Jackson ImmunoResearch Laboratories, #BR-1008-39) to capture anti-NPR1 mAbs.

In experiment [10] the target is T2, human NPR1 extracellular domain …. Put plainly: SPR, mAb captured, 25 C; 25 C. The method, then: as §2

B1: mAb22809 (antibody, V domains shown)
VH: QLQLRESGPGLVKPSETLSLTCTVSGGSINDNSFFWDWIRQTPGRGLEWIGNIFFDGNTYYTPSLKSRVIISVDMSQNQFSLRLTSVTAADTALYYCARHKRSMTAWGFFDYWGQGTLVTVSS
VL: DIQMTQSPSSLSASVGDRVTITCRASKRINTYLNWYQQKPGKAPKVLIYSASNLQSGVPSRFSGSGSGTDFTLTINSLQPEDFATYFCQQSFSAPPITFGQGTRLEIK
Take B1: the “100 nM Ag Bound (RU)” value in experiment [1] was 0 RU; in experiment [2], -1 RU; in experiment [3] it was -1 RU; in [4], 1 RU; in [5], 0 RU; in experiment [6], -2 RU. Besides, the “100 nM Ag Bound (RU)” value in experiment [7] and in experiment [8] was 0 RU throughout. For the same molecule, the figures for the binding result in experiment [5], in experiment [8] and in [9] were “no binding (tested: 100 nM)”, “no binding (tested: 100 nM)” and “no binding”, respectively.

B2: mAb25502 (antibody, V domains shown)
VH: QLQLQESGPGLVKPSETLSLTCTVSGGSISSSSYYWGWIRQPPGKGLEWIGSIYYSGSPYYIPSLKSRVTISVDTSKNQFSLKLSSVTAADTAMYYCARQGRGIARAGPFDYWGQGTLVTVSS
VL: DIQMTQSPSSLSASVGDRVTITCRASQGISNYLAWYQEKPGKVPKLLIYAASTLQSGVPSRFSGSGSGTDFTLTITSLQSEDVATYYCQKYNSAPPWTFGQGTKVEIK
In general, Kd refers to the free concentration of one partner at which half of the binding sites on the other are occupied at equilibrium, for simple one-to-one binding. Usually koff stands for the rate constant with which the complex falls apart. By kon is commonly meant a measure of how fast the partners come together. A word on the t½: it is the time in which the quantity being followed falls by half. On to B2, for which the “100 nM Ag Bound (RU)” value in [1] turned out to be 0 RU; in experiment [3], 4 RU; in experiment [4], 6 RU; in experiment [5], 0 RU; in [7], 2 RU; in experiment [8], 3 RU. Also, the binding result is “no binding (tested: 100 nM)” in experiment [3], “no binding (tested: 100 nM)” in experiment [5], “no binding (tested: 100 nM)” in experiment [8] and “no binding” in experiment [9]. Binding in experiment [10] was put at a Kd of 0.994 nM. In [10], this molecule had an off-rate (koff) of 8.74e-05 s⁻¹. The kon in experiment [10] came out at 87900 M⁻¹ s⁻¹. In [10], this molecule had a t½ of 2.2 h.

B3: mAb25508 (antibody, V domains shown)
VH: EVQLVESGGGVVRPGGSLRLSCAASGFNVDDYGMSWVRQIPGKGLEWISGINWNGGRIYYADSMKGRITISRDNAKNSLYLQMNSLRAEDTALYHCVRDQWLVRGLDYWGQGTLVTVSS
VL: DIQMTQSPSSLSASVGDRVTITCRASQGIYNYLAWFQQKPGKAPKSLIYAASSLQSGVPSKFSGSGSGTDFTLTISSLQPEDFATYYCQQYNTYPYTFGQGTKLEIK
On to B3, for which the “100 nM Ag Bound (RU)” value came out at 0 RU in experiment [1]; 242 RU in experiment [2]; 252 RU in experiment [3]; 275 RU in [4]; 0 RU in experiment [5]; 211 RU in [6]. In addition, the “100 nM Ag Bound (RU)” value in experiment [7] stood at 192 RU; in experiment [8], 213 RU. Besides, the dissociation constant (Kd) in experiment [2] was 0.121 nM; in experiment [3] it was 0.49 nM; in experiment [4], 0.349 nM; in experiment [6], 0.0868 nM; in [7] it was 0.309 nM; in [8], 0.187 nM. Moreover, the koff in experiment [2] turned out to be 0.000101 s⁻¹; in experiment [3] it was 0.000222 s⁻¹; in experiment [4] it was 0.000273 s⁻¹; in experiment [6], 6.85e-05 s⁻¹; in experiment [7], 0.000134 s⁻¹; in [8], 0.000132 s⁻¹. Further, the kon in [2] was determined as 838000 M⁻¹ s⁻¹; in experiment [3] it was 453000 M⁻¹ s⁻¹; in experiment [4] it was 782000 M⁻¹ s⁻¹; in experiment [6] it was 789000 M⁻¹ s⁻¹; in [7], 432000 M⁻¹ s⁻¹; in [8], 706000 M⁻¹ s⁻¹. Further, the t½ in experiment [2] was 1.9 h; in experiment [3] it was 0.868 h; in experiment [4], 0.705 h; in experiment [6], 2.81 h; in experiment [7] it was 1.44 h; in [8] it was 1.46 h. The binding result in [5] is reported as “no binding (tested: 100 nM)”; in experiment [9], “no binding”.
